Experimental data reported in patent publication US20160282364.

Tested on: insulin

**Q.** How did the “degradation of insulin by IDE (HTRF insulin assay, 0.4 µg/mL IDE, 10 ng/mL insulin, 30° C., 15 min)” value turn out when “recombinant human IDE42-1019 (R&D Systems)” was run?
**A.** The value was “˜75% degradation of insulin”.
